Data published in patent US20160271248A1, “CXCR4 UP- AND DOWN-REGULATION FOR TREATMENT OF DISEASES OR DISORDERS” (priority 2013, published 2016).

System: neuronal FHC
Test: gp120-mediated upregulation of neuronal FHC in bilaminar co-cultures with neutralizing antibodies or IL-1ra
Format: cell-based, rat
Conditions: IL-1β antibody 50 μg/mL, IL-1ra 1 μg/mL
Description: FIG. 13, comprising FIGS. 13A-13C, is a set of bar graphs and images illustrating that the presence of an IL-1β neutralizing antibody or IL-1 receptor antagonist abrogated gp120-mediated increases in FHC. Rat neurons cultured with a feeder layer of glia (8 DIV) were treated with either gp120IIIB (200 pM) or gp120BaL (200 pM) in the presence or absence of TNF-α antibody (40 μg/mL), IL-1β antibody (50 μg/mL) or IL-1ra (1 μg/mL). The presence of a TNF-α neutralizing antibody had no effect on the ability of gp120 to upregulate neuronal FHC. Neutralization or antagonism of IL-1β mitigated increases in neuronal FHC caused by gp120 in bilaminar cultures.
Rat cortical neurons were cultured in serum-free media in the presence of a glial feeder layer (Shimizu, et al., 2011, J. Vis. Exp. 57). This culture system largely preserves the in vivo environment, due to the presence of glia; however, it still enables direct investigation of neurons that can be separated by the glia before experiments. Selected studies were also performed in neurons grown in the absence of glia for the entire culture period, as indicated (Sengupta, et al., 2009, J. Neurosci. 29(8):2534-44). All experiments were conducted between 8-13 days in vitro (DIV).
Total protein extracts were obtained using standard protocols. […]

B1: IL-1ra: IL-1 receptor antagonist, an endogenous inhibitor of IL-1 signaling (protein, UniProt P25086 27-178, looked up)
Interleukin-1 receptor …: HPAGKRPCKMQAFRIWDTNQKTFYLRNNQLIAGYLQGPNTKLEEKIDMVPIDFRNVFLGIHGGKLCLSCVKSGDDTKLQLEEVNITDLNKNKEEDKRFTFIRSETGPTTSFESLACPGWFLCTTLEADHPVSLTNTPKEPCTVTKFYFQEDQ
gp120IIIB or gp120BaL 200 pM, TNF-α antibody 40 μg/mL
  effect on gp120-induced upregulation of neuronal FHC: completely blocked
Without gp120
  FHC protein levels, treatment alone: no significant effect on FHC protein levels
